Test results as given in PMC8651795, “eIF2B-capturing viral protein NSs suppresses the integrated stress response” (Nature Communications, 2021).

Target: T1, human eIF2B (heterodecamer of two copies each of the α-, β-, γ-, δ- and ε-subunits) (human, UniProt Q14232;P49770;Q9NR50;Q9UI10;Q13144)
T1 construct: also called eIF2B decamer; copies: 2 + 2 + 2 + 2 + 2
Assay: MST
Conditions: both partners purified

B1: Sandfly fever Sicilian virus (SFSV) nonstructural protein NSs, wild type (natural protein)
chain: MNSQYMFDYPAINIDVRCHRLLSSVSYVAYNKFHTHDVSTYEHCEIPLEKLRLGFGRRNSLADFYSLGELPASWGPACYFSSVKPMMYTFQGMASDLSRFDLTSFSRKGLPNVLKALSWPLGIPDCEIFSICSDRFVRGLQTRDQLMSYILRMGDSHSLDECIVQAHKKILQEARRLGLSDEHYNGYDLFREIGSLVCLRLINAEPFDTASSGEALDVRTVIRSYRASDPSTGLTEYGNSLWTPIHSHVDENDESSSDSDF
notes: also called SFSV NSs; wild-type SFSV NSs; source: E. coli T7 Express, purified (His-tag resin, HiTrap Q, Superdex 200); not shown: His-tag, C-terminal, kept
Kd: 16.9 ± 2.8 nM
